Conditions in all cases: 20 nM; 72 h
Series [1] relates to MCF10A. Description: percent viability (nuclei count relative to siNT); higher = more viable cells. The protocol: (§1)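 After 72 h, cells were fixed and stained with Hoechst and anti-fibrillarin, and nucleoli per nucleus were counted with CellProfiler. Values are plate-adjusted percent effect for the one-nucleolus and 5+ nucleoli phenotypes, normalised to siNT (0%) and to the positive controls siNOL11 or siKIF11 (100%), as the mean of biological triplicates. Percent viability is the nuclei count relative to siNT.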

Series [2] has as its system MCF10A. Description: 5+ nucleoli phenotype percent effect (relative to siNT 0% and siKIF11 100%); higher = more cells with five or more nucleoli. The method, then:
as §1

For series [3], the system named is MCF10A. The series is described as follows: one-nucleolus phenotype percent effect (relative to siNT 0% and siNOL11 100%); higher = more cells with one nucleolus (ribosome biogenesis inhibition). The method, then:
as §1

In the case of GAAGUUGCCCAUGUUAUUUUCG [hsa-miR-495-5p], the percent viability in series [1] worked out at 42.2%. Besides, the “5+ nucleoli phenotype percent effect” value in series [2] was -1.1%. In series [3], the “one-nucleolus phenotype percent effect” value worked out at 1.67%.
In the same order, the values of GUGAGUCUCUAAGAAAAGAGGA [hsa-miR-627] are 62.9%, 7.75% and -10.4%.
In the same order, the values of GCAGUGGCUCUGAAAUGAACUC [hsa-miR-5693] are 33.8%, -12.8% and -3.8%.
Turning to UCUGGGGUCUUGGGCCAUC [hsa-miR-7155-5p], the percent viability in series [1] is 10.2%. The “5+ nucleoli phenotype percent effect” value in series [2] was -0.455%. The “one-nucleolus phenotype percent effect” value in series [3] came to 34.2%.
For “UGGGAGCCAUGAGGGUCUGUGC [hsa-miR-6827-5p]”, the percent viability in series [1] was 15.6%. Besides, the “5+ nucleoli phenotype percent effect” value in series [2] was -1.65%. Moreover, the “one-nucleolus phenotype percent effect” value in series [3] turned out to be 26.3%.
As for GCUUGUCGCUGCGGUGUUGCU [hsa-miR-3655], the percent viability in series [1] amounted to 65.9%. The “5+ nucleoli phenotype percent effect” value in series [2] is -7.75%. Further, in series [3], the “one-nucleolus phenotype percent effect” value was 29.1%.
In the same order, the values of “AAGCAGCAGUGGCAAGACUCCU [hsa-miR-6838-5p]” are 24.7%, -35.6% and 31.1%.
In the same order, the values of “CUUCCGGUCUGUGAGCCCCGUC [hsa-miR-4664-3p]” are 36.8%, -1.01% and 14.5%.
In the same order, the values of “UGGGCCAGGGAGCAGCUGGUGGG [hsa-miR-4640-5p]” are 54.9%, 7.66% and 15.3%.
With UUCACAGGGAGGUGUCAU [hsa-miR-513a-5p], in series [1], the percent viability amounted to 68%. In series [2], the “5+ nucleoli phenotype percent effect” value was -25.5%. The “one-nucleolus phenotype percent effect” value in series [3] was 24.8%.
With CUGGAUGGCUCCUCCAUGUCU [hsa-miR-432-3p], in series [1], the percent viability was 16.2%. For the same sequence, in series [2], the “5+ nucleoli phenotype percent effect” value was -33.6%. For the same sequence, in series [3], the “one-nucleolus phenotype percent effect” value is 62%.
The corresponding values for UGAGGGAGUGGGUGGGAGG [hsa-miR-6127] are 39.8%, -15.1% and 3.31%.
As to AUCGGGAAUGUCGUGUCCGCCC [hsa-miR-425-3p], the percent viability in series [1] is 109%. Further, the “5+ nucleoli phenotype percent effect” value in series [2] was -1.09%. For the same sequence, in series [3], the “one-nucleolus phenotype percent effect” value is -1.79%.
In the same order, the values of ACUCUAGCUGCCAAAGGCGCU [hsa-miR-1251] are 80.4%, 11.2% and -4.32%.
The corresponding values for UCUAGUGCGGGCGUUCCCG [hsa-miR-6080] are 85.3%, 23.2% and -6.26%.
In the same order, the values of GAAGGCGCUUCCCUUUGGAGU [hsa-miR-524-3p] are 70.4%, -9.32% and 35.1%.
For the sequence “AGAAAGGUGGAGGGGUUGUCAGA [hsa-miR-6730-5p]”, the percent viability in series [1] amounted to 24.7%. In addition, the “5+ nucleoli phenotype percent effect” value in series [2] was -33.5%. In series [3], the “one-nucleolus phenotype percent effect” value stood at 47.3%.
The corresponding values for “UAAAGUGCUUAUAGUGCAGGUAG [hsa-miR-20a-5p]” are 81.6%, 6.94% and -13.2%.
As to UCCUGCCACCUCCUCCGCAG [hsa-miR-6727-3p], in series [1], the percent viability was found to be 32.5%. For the same sequence, in series [2], the “5+ nucleoli phenotype percent effect” value was -26.4%. Besides, the “one-nucleolus phenotype percent effect” value in series [3] was 19.2%.
The corresponding values for “AAUCCCAAUGCUAGACCCGGUG [hsa-miR-4733-5p]” are 19.5%, 2.55% and 2.5%.
Take ACUUGGGCACUGAAACAAUGUCC [hsa-miR-635]: the percent viability in series [1] came to 65.6%. Besides, the “5+ nucleoli phenotype percent effect” value in series [2] stood at 32.7%. Also, in series [3], the “one-nucleolus phenotype percent effect” value is -11.4%.
On to UGAGGAGAUGCUGGGACUGA [hsa-miR-4784], for which, in series [1], the percent viability was found to be 56.7%. Besides, the “5+ nucleoli phenotype percent effect” value in series [2] was 22.8%. Moreover, in series [3], the “one-nucleolus phenotype percent effect” value is -9%.
The corresponding values for UGUGACAGAUUGAUAACUGAAA [hsa-miR-542-3p] are 39.5%, -17.1% and 65.1%.
The corresponding values for “CAUGCUGACCUCCCUCCUGCCCCAG [hsa-miR-4728-3p]” are 69.7%, 20.8% and -12.7%.
The corresponding values for “AGUGGGGUGGGACCCAGCUGUU [hsa-miR-6742-5p]” are 21.8%, -35.4% and 43.2%.
On to ACUGGCCUGGGACUACCGG [hsa-miR-3176], for which, in series [1], the percent viability stood at 54.4%. In addition, the “5+ nucleoli phenotype percent effect” value in series [2] amounted to 35.3%. The “one-nucleolus phenotype percent effect” value in series [3] is -13.2%.
In the same order, the values of “CUCUAGCCACAGAUGCAGUGAU [hsa-miR-1287-3p]” are 17%, -37.2% and 31.4%.
In the same order, the values of UCAAAAUGUAGAGGAAGACCCCA [hsa-miR-4698] are 127%, 21.6% and -18.4%.
The corresponding values for “UUGGGGUGGAGGGCCAAGGAGC [hsa-miR-6819-5p]” are 3.49%, 2.57% and 37.8%.
In the case of “GUAGGGGAGGUUGGGCCAGGGA [hsa-miR-6824-5p]”, in series [1], the percent viability was determined as 78.1%. For the same sequence, the “5+ nucleoli phenotype percent effect” value in series [2] is 39.2%. Besides, the “one-nucleolus phenotype percent effect” value in series [3] was -25.3%.
The corresponding values for GAGGCUGAUGUGAGUAGACCACU [hsa-miR-3929] are 30.5%, -13.8% and 14.1%.
The corresponding values for CUGGGAGGUGUGAUAUUGUGGU [hsa-miR-3689c] are 9.66%, -32.9% and 44%.
The corresponding values for CAUAGCCCGGUCGCUGGUACAUGA [hsa-miR-3651] are 70%, -7.1% and 17.1%.
In the case of ACAGGAGUGGGGGUGGGACAU [hsa-miR-4433-3p], the percent viability in series [1] was 38.2%. In addition, the “5+ nucleoli phenotype percent effect” value in series [2] was -0.614%. For the same sequence, the “one-nucleolus phenotype percent effect” value in series [3] is 6.34%.
In the same order, the values of UAACUGGUUGAACAACUGAACC [hsa-miR-582-3p] are 106%, 31.1% and -29.8%.
In the same order, the values of “UUUAGUGUGAUAAUGGCGUUUGA [hsa-miR-3591-5p]” are 39.6%, 0.56% and 11.5%.
The corresponding values for “CAACCCUAGGAGAGGGUGCCAUUCA [hsa-miR-652-5p]” are 46.2%, -17.7% and 12.5%.
Regarding “CAGUGCAAUGUUAAAAGGGCAU [hsa-miR-130a-3p]”, the percent viability in series [1] stood at 120%. In addition, the “5+ nucleoli phenotype percent effect” value in series [2] was 49.2%. The “one-nucleolus phenotype percent effect” value in series [3] is -19.9%.
With UUCCCUUUGUCAUCCUUCGCCU [hsa-miR-211-5p], the percent viability in series [1] was determined as 75.8%. For the same sequence, the “5+ nucleoli phenotype percent effect” value in series [2] was 49.7%. Further, in series [3], the “one-nucleolus phenotype percent effect” value is -7.23%.
With “GGUGGGAUGGAGAGAAGGUAUGAG [hsa-miR-4769-5p]”, the percent viability in series [1] is 77.6%. For the same sequence, in series [2], the “5+ nucleoli phenotype percent effect” value stood at 33.7%. Also, the “one-nucleolus phenotype percent effect” value in series [3] was -13.3%.
In the same order, the values of “AGCUCGGUCUGAGGCCCCUCAGU [hsa-miR-423-3p]” are 56.6%, -11.8% and 19.5%.
In the same order, the values of UCCAGGGAGACAGUGUGUGAG [hsa-miR-7113-5p] are 32.5%, -2.05% and 23.5%.
The corresponding values for CCCGGAGCCAGGAUGCAGCUC [hsa-miR-1203] are 68.6%, 4.95% and -10.2%.
As to CAUGGGGUAGGGCAGAGUAGG [hsa-miR-6890-5p], in series [1], the percent viability was determined as 43.6%. Moreover, the “5+ nucleoli phenotype percent effect” value in series [2] is -15.7%. The “one-nucleolus phenotype percent effect” value in series [3] turned out to be 21.6%.
The corresponding values for “ACUUUCCUCACUCCCGUGAAGU [hsa-miR-3124-3p]” are 115%, 49.4% and -15.5%.
In the same order, the values of “UAGGGUAGACACUGACAACGUU [hsa-miR-6755-5p]” are 19.9%, -14.8% and 25%.
Turning to “AAAUAUAUAUAUAUAUGUACGUAU [hsa-miR-1277-5p]”, the percent viability in series [1] turned out to be 47.1%. Further, the “5+ nucleoli phenotype percent effect” value in series [2] is 64.2%. Moreover, the “one-nucleolus phenotype percent effect” value in series [3] was -29.6%.
In the same order, the values of UGUUGGGAUUCAGCAGGACCAU [hsa-miR-4425] are 27.3%, -29% and 19.2%.

Values taken from the supplement of paper PMC10899765.
